Experiment [1] has as its target T1, KRAS G12V peptide on HLA-A*02:01 (human).
T1 peptide: KLVVVGAVGV
The experiment can be described thus: multimer staining.

Experiment [2] concerns the target KRAS 7-16(G12V) SCT tetramer #7. The experiment is described as follows: flow cytometry, tetramer labelling of TCR-transduced donor X CD8+ T cells, Tetramer APC against CD8 ef450 [Continued]. In general terms: Flow cytometry measures light scatter and fluorescence of single cells or particles in a stream.
The target of experiment [3] is KRAS 7-16(G12D) SCT tetramer #2 (human). The experiment is described as above.
Experiment [4] addresses T2, KRAS G12V (same sequence in NRAS and HRAS G12V) peptide on HLA-A*11:01 (human).
T2 peptide: VVVGAVGVGK
The experiment is described as follows: cytokine release.

Experiment [5] concerns the target T3, KRAS G12V (same sequence in NRAS and HRAS G12V) peptide on HLA-A*11:01 (human).
T3 peptide: VVGAVGVGK
The experiment is described as follows: cytokine release.

Experiment [6] addresses T4, KRAS G12D (same sequence in NRAS and HRAS G12D) peptide on HLA-A*11:01 (human).
T4 peptide: VVVGADGVGK
The experiment can be described thus: cytokine release.

Experiment [7] concerns the target T5, KRAS G12D (same sequence in NRAS and HRAS G12D) peptide on HLA-A*11:01 (human).
T5 peptide: VVGADGVGK
The experiment is described as follows: cytokine release.

B1: A2 KRAS TCR19 (TCR, V domains shown)
Valpha: AQSVSQHNHHVILSEAASLELGCNYSYGGTVNLFWYVQYPGQHLQLLLKYFSGDPLVKGIKGFEAEFIKSKFSFNLRKPSVQWSDTAEYFCAVNDPSDYKLSFGAGTTVTVRA
Vbeta: DGGITQSPKYLFRKEGQNVTLSCEQNLNHDAMYWYRQDPGQGLRLIYYSQIVNDFQKGDIAEGYSVSREKKESFPLTVTSAQKNPTAFYLCASRSDRNEQFFGPGTRLTVL
In the case of B1, the binding result in experiment [1] was “recognises”.

B2: TCR_20 (TCR, V domains shown)
V domain 1: DAKTTQPPSMDCAEGRAANLPCNHSTISGNEYVYWYRQIHSQGPQYIIHGLKNNETNEMASLIITEDRKSSTLILPHATLRDTAVYYCIVRLNSGNTPLVFGKGTRLSVIA
V domain 2: EAGVAQSPRYKIIEKRQSVAFWCNPISGHATLYWYQQILGQGPKLLIQFQNNGVVDDSQLPKDRFSAERLKGVDSTLKIQPAKLEDSAVYLCASSPTFPAGDRDTQYFGPGTRLTVLE
For B2, the tetramer gate (share of cells in the gate; unit not given) stood at 3.96 in experiment [2] and 3.48 in experiment [3].

B3: A2 KRAS TCR04 (TCR, V domains shown)
Valpha: AQKVTQAQTEISVVEKEDVTLDCVYETRDTTYYLFWYKQPPSGELVFLIRRNSFDEQNEISGRYSWNFQKSTSSFNFTITASQVVDSAVYFCALMDSSYKLIFGSGTRLLVRP
Vbeta: GAVVSQHPSWVICKSGTSVKIECRSLDFQATTMFWYRQFPKQSLMLMATSNEGSKATYEQGVEKDKFLINHASLTLSTLTVTSAHPEDSSFYICSAFLSGSADTQYFGPGTRLTVL
In the case of B3, the binding result in experiment [1] is “recognises”.

B4: 141_1 TCR (TCR, V domains shown)
V domain 1: AQTVTQSQPEMSVQEAETVTLSCTYDTSESDYYLFWYKQPPSRQMILVIRQEAYKQQNATENRFSVNFQKAAKSFSLKISDSQLGDAAMYFCALKTSYDKVIFGPGTSLSVIP
V domain 2: NAGVTQTPKFQVLKTGQSMTLQCAQDMNHEYMSWYRQDPGMGLRLIHYSVGAGITDQGEVPNGYNVSRSTTEDFPLRLLSAAPSQTSVYFCASSLGAGEWKSPLHFGNGTRLTVTE
With B4, the tetramer gate (share of cells in the gate; unit not given) in experiment [2] is 4.06; in experiment [3] it was 14.8.

B5: A11 KRAS TCR_141_1 (TCR, V domains shown)
Valpha: AQTVTQSQPEMSVQEAETVTLSCTYDTSESDYYLFWYKQPPSRQMILVIRQEAYKQQNATENRFSVNFQKAAKSFSLKISDSQLGDAAMYFCALKTSYDKVIFGPGTSLSVIP
Vbeta: NAGVTQTPKFQVLKTGQSMTLQCAQDMNHEYMSWYRQDPGMGLRLIHYSVGAGITDQGEVPNGYNVSRSTTEDFPLRLLSAAPSQTSVYFCASSLGAGEWKSPLHFGNGTRLTVT
Consider B5, for which the binding result is on record as “no recognition” in experiment [4], “no recognition” in experiment [5], “recognises” in experiment [6] and “no recognition” in experiment [7].

B6: A2 KRAS TCR03 (TCR, V domains shown)
Valpha: GEDVEQSLFLSVREGDSSVINCTYTDSSSTYLYWYKQEPGAGLQLLTYIFSNMDMKQDQRLTVLLNKKDKHLSLRIADTQTGDSAIYFCAERTDTDKLIFGTGTRLQVFP
Vbeta: GAGVSQTPSNKVTEKGKYVELRCDPISGHTALYWYRQSLGQGPEFLIYFQGTGAADDSGLPNDRFFAVRPEGSVSTLKIQRTERGDSAVYLCASSPLAANEQFFGPGTRLTVL
Consider B6, for which, in experiment [1], the binding result is recorded as “recognises”.

B7: A2 KRAS TCR15 (TCR, V domains shown)
Valpha: GEDVEQSLFLSVREGDSSVINCTYTDSSSTYLYWYKQEPGAGLQLLTYIFSNMDMKQDQRLTVLLNKKDKHLSLRIADTQTGDSAIYFCAEMMDTDKLIFGTGTRLQVFP
Vbeta: EAGVAQSPRYKIIEKRQSVAFWCNPISGHATLYWYQQILGQGPKLLIQFQNNGVVDDSQLPKDRFSAERLKGVDSTLKIQPAKLEDSAVYLCASSLPSGNEQFFGPGTRLTVL
Regarding B7, in experiment [1], the binding result is “recognises”.

B8: A2 KRAS TCR09 (TCR, V domains shown)
Valpha: GESVGLHLPTLSVQEGDNSIINCAYSNSASDYFIWYKQESGKGPQFIIDIRSNMDKRQGQRVTVLLNKTVKHLSLQIAATQPGDSAVYFCAEIFNDYKLSFGAGTTVTVRA
Vbeta: EAQVTQNPRYLITVTGKKLTVTCSQNMNHEYMSWYRQDPGLGLRQIYYSMNVEVTDKGDVPEGYKVSRKEKRNFPLILESPSPNQTSLYFCASSQAGLGNEQFFGPGTRLTVL
As to B8, the binding result in experiment [1] was “recognises”.

B9: A2 KRAS TCR12 (TCR, V domains shown)
Valpha: AQSVTQLDSQVPVFEEAPVELRCNYSSSVSVYLFWYVQYPNQGLQLLLKYLSGSTLVESINGFEAEFNKSQTSFHLRKPSVHISDTAEYFCAVTRDDKIIFGKGTRLHILP
Vbeta: DVKVTQSSRYLVKRTGEKVFLECVQDMDHENMFWYRQDPGLGLRLIYFSYDVKMKEKGDIPEGYSVSREKKERFSLILESASTNQTSMYLCASSLQVSGVAGYTFGSGTRLTVV
With B9, the binding result in experiment [1] is on record as “recognises”.

B10: A2 KRAS TCR05 (TCR, V domains shown)
Valpha: AQSVTQPDIHITVSEGASLELRCNYSYGATPYLFWYVQSPGQGLQLLLKYFSGDTLVQGIKGFEAEFKRSQSSFNLRKPSVHWSDAAEYFCAVGDENTGFQKLVFGTGTRLLVSP
Vbeta: DVKVTQSSRYLVKRTGEKVFLECVQDMDHENMFWYRQDPGLGLRLIYFSYDVKMKEKGDIPEGYSVSREKKERFSLILESASTNQTSMYLCASALRGTYEQYFGPGTRLTVT
As to B10, the binding result in experiment [1] was “recognises”.

B11: A2 KRAS TCR18 (TCR, V domains shown)
Valpha: GEDVEQSLFLSVREGDSSVINCTYTDSSSTYLYWYKQEPGAGLQLLTYIFSNMDMKQDQRLTVLLNKKDKHLSLRIADTQTGDSAIYFCAVLLDNQGGKLIFGQGTELSVKP
Vbeta: DVKVTQSSRYLVKRTGEKVFLECVQDMDHENMFWYRQDPGLGLRLIYFSYDVKMKEKGDIPEGYSVSREKKERFSLILESASTNQTSMYLCASRGLSTDTQYFGPGTRLTVL
On to B11, for which the binding result in experiment [1] is “recognises”.

B12: A2 KRAS TCR08 (TCR, V domains shown)
Valpha: GEDVEQSLFLSVREGDSSVINCTYTDSSSTYLYWYKQEPGAGLQLLTYIFSNMDMKQDQRLTVLLNKKDKHLSLRIADTQTGDSAIYFCAERIDSGNTPLVFGKGTRLSVIA
Vbeta: DVKVTQSSRYLVKRTGEKVFLECVQDMDHENMFWYRQDPGLGLRLIYFSYDVKMKEKGDIPEGYSVSREKKERFSLILESASTNQTSMYLCAIEPPTGNEQYFGPGTRLTVT
For the molecule B12, the binding result in experiment [1] is recorded as “recognises”.

B13: A2 KRAS TCR11 (TCR, V domains shown)
Valpha: DQQVKQNSPSLSVQEGRISILNCDYTNSMFDYFLWYKKYPAEGPTFLISISSIKDKNEDGRFTVFLNKSAKHLSLHIVPSQPGDSAVYFCAAISLTSGTYKYIFGTGTRLKVLA
Vbeta: DTEVTQTPKHLVMGMTNKKSLKCEQHMGHRAMYWYKQKAKKPPELMFVYSYEKLSINESVPSRFSPECPNSSLLNLHLHALQPEDSALYLCASSQDLGTVYEQYFGPGTRLTVT
Take B13: the binding result in experiment [1] is reported as “recognises”.

The record behind these values is patent publication US20250114433A1 (published 2025).
